Measurements as given in the DeepSol protein solubility set.

assay: soluble on expression in E. coli; label from the status in PepcDB or PDB records

Sequence	soluble on expression in E. coli
MKIYSQGDQAIVVSIEKNVSQRLTEDLLSLRAYLIDKSYPFITEIVATESDLMICYDARDMIKHHHIQSPFLYMKALIDSIKLEIRHHRQQLQAKYIQKQQSVNIPVIYGGEFGPDLQHLLKHLKLKLEDFVKLHTQEKYFVSMMGYSPGFPYLTGMNKKLHVNHTSEKKKFIPCGSVIMEGKKCGIVTTDTYNDWLVIGYTPVQLFFPEQQNFTLLKLGDNVTFESKDINEIELGDYKTCQSLEHHHHHH	not soluble
MKKDNTVFNDLQASLKQAVAIRQGKMPPSRVFKVETVDVKATREKTHMSQTEFAKAIHVSVRTLQNWEQGHRNPTGPAVALLKIVASAPDIAVRALRTA	not soluble
MKKEIIVYTISDSLGETSQKLLAAASAQYPDISFLNRYNFSFVTTEEELLEILKDALKDKALVVSTLVSKQLITAAKEFSERTGLLYLDLMAPFFELIQAKAGVDPIEEPGRRHQLDRAYFDKISAIEFAVKYDDGKNPQGFLDSDILLLGVSRTSKTPVSMYLANQGYRVSNLPLIPEVPLPPILEEMDPQKMIGLVCSPETLGQIRSSRLASLGLGNETSYTNVERIEQELAYAEEIFAKYGIPVIDVTAKSVEETAFLIKEKLDERN	not soluble
MKKFSGIIPPVSSTFHRDGTLDKKAMREVADFLINKGVDGLFYLGTGGEFSQMNTAQRMALAEEAVTIVDGRVPVLIGVGSPSTDEAVKLAQHAQAYGADGIVAINPYYWKVAPRNLDDYYQQIARSVTLPVILYNFPDLTGQDLTPETVTRLALQNENIVGIKDTIDSVGHLRTMINTVKSVRPSFSVFCGYDDHLLNTMLLGGDGAITASANFAPELSVGIYRAWREGDLATAATLNKKLLQLPAIYALETPFVSLIKYSMQCVGLPVETYCLPPILEASEEAKDKVHVLLTAQGILPV	not soluble
MKKGTVLNSEISSVISRLGHTDTLVVCDAGLPIPNSTARIDMALTQGVPSFMQVVDVVTREMQVEAAILATEIKQQNPQLHETLLTHLEQLQQHQGNTIKISYTTHEQFKKLTADSQAVIRSGECSPYANVILCAGVTF	not soluble
MKKGVHLVFILVASLLSSFSVMAQSLQASVNKTEVAKNEVINLRIMADSEVASDAIDFSVLEKDFFLGQPRYGRSSNNINGRKYQRTEWSISIAPMKEGIITIPSFSADGMKTEPIQLKVTANKSAPDLDDLFSFNMSVDNHTLYPQQSANLRMQLIIKADTRRLDNPQVV	not soluble
MKKIATATIATAGIATFAFAQHDADAAENNNSGYNPNDPSSYSYSYTIDQQGQYHYTWQGNWNPSNSDQGHTSNGYSNANSTNNNATQSYTTNNQGTGGKGAVSHSTSNSNVKVSTTSAPSNSNGSNSISNTSGSSNNLYTAGQCTYYVYDKVGGKIGSTWGNANNWASAAAASGYTVNNSPASGSVLQSTAGGYGHVAYVENVNSDGSINVSEMNYGQGAGVVTSRTISASEASGYNYIH	not soluble
MKKIHMIPAALLIGSLALVSCAPSQPTQNAQTVSSVMTETPTYTSSSRSVESTAGTIAASEEATMTLLENSSGDPGSDSGGARYSLNSLKVSEQAAANAVLKAVLNDVSYQEFADSSYLEITGTPSADGTWGISFGGPSESASVEFSDGSISFSPVDMTVPATRLPQMGAFYETLTEEQLGMLETGLAVSTVDSSQQEMLLDLVSNSIGLADTETTATAISKIRATLSETYLFGTPDGLTLALSGPHVDFEVSHQGSTAKITYRDPSTDTLTAEDRVDTASVAAAPPEVVLEHHHHHH	not soluble
MKKILDACCGSRMFWFDKQNDQVLFMDNRKHYEKLESGHIVAVNPNIVADFRKMPFDDNSFYHVVFDPPHLLRAGSNSWLAKKYGKLNEQTWKEDIQKGFSECMRVLKPNGTLVFKWNEDQIKLSEILSIIDYEPLYGNKRAKTHWLVFMKESEENESNGLEHHHHHH	not soluble
MKKLIVDLDGTLTQANTSDYRNVLPRLDVIEQLREYHQLGFEIVISTARNMRTYEGNVGKINIHTLPIITEWLDKHQVPYDEILVGKPWCGHDGFYIDDRAVRPSEFASMNLEEIHQLFEKEKSCS	soluble
MKKLLSACLILFTVVCSAYAADEKEAAPAAEYAYYGFEPEIVTNYISNRKKLGFVKISVELMVKSPDDLVIVERHDPLLRAAIIEVLGNQAEEKVKSLTGREEIRRECFDMVNNLLTKEAGKPLVVNLLFTSYLYD	not soluble
MKKLLSSDRIKAEALRLGFSACGLAPAEAVDETVATAFRQWLADGCQAEMAYMQNYEDKRLDPRLLVEGARTVISVALNYYPAKKLPEGEYQIAWYAYGKDYHDVMKRKLKELFEFIEKEVSFSEETDSTIASTNNIGTYTENYASAPQAPVSQTSASPLQGRIFCDTAPILERYWAWRTGLGWIGKNTHLIIPHAGSCFFLGEIILDREADNYDSPQRNQCGSCTRCLDACPTKALEAPFRLNSERCLSYLTIEYRGELSLNTGKKMGNKIYGCDECLKACPWNRFATPCRTAEFQPSPSLLSMKKDDWHSLSEEQYKTIFKGSAVKRAKYSGLMRNIKIIK	not soluble
MKKMLVLLFVCLLVLAGCSSKSEPQGGGAAKKAEPKVMKMAVATSKDRSLTKGLYKFAEIVEKETNGSIKVEVYPDGQLGGDVAVFEALKMGTIQGSTMSTGPIASFAPRIGVLDLPFLFKDRETAYKVLDGKIGQDLLNDLPSVGVIGLNYWENGFRHLTNNKREVKSVDDIKGLKIRTLENDLHIDLWKELGATPVPMVFTELFTALEQHVVDGQENPVGNVAINKFYEVQKYLTKTGHVYNASPLLISKKFWDTLTDKEKDIIKKAAEEARDYQRKLNQEEDEKMFDYLKQQGMVITELSPEEKQKFVEKVQPIYQKYAPKFGQDLVNELINAGK	not soluble
MKKRILSAVLVSGVTLSAAASVHAEDYDSQIAATNNAISNLASQQEAAQAQVATIQSQVSTLRTQKTELEAKNAELEKVSADLESEIQELSSKIVARQDSLAKQARSAQQNNTATSYINSILNSKSISEAITRITAISKVVTANNDLLTKQESDQKELAAKQEENQAAINTIAANKSELETTEAGLTTQQAELEAAQVTLAAELATAQNEKTSLVSAKSTAESVAASTAASVAQSQAIAESEATAQVVASSEAATSVASSEVAATSEAVAQPSETPVSETSTASEAAQEPASSETSEVQPESAAPAVSEAPASVAPVATSEAAPATSEAPASVAPVATSEAAPAVSEAPAPAAETHKVSAASTPNTYPVGQCTWGVKSLAPWAGNNWGNAKNWIASAQAAGHSVGTTPVAGAIAVWPNDGGGYGHVAYVTSASGANSIQVMESNYAGNMSISNYRGTFDPTSSAHGGSVFYIYPLEHHHHHH	soluble
MKKSILFICLLTLASTLAKVQAQEERNHGIIWSSLHGLEYGVKAGFNIGGTSPLPLPQEIRAITGYSPNVCFAIEGNVTKWFDKDKKWGMILGLRLENKGMETKARVKNYGMEIIGDGGEHLAGNWTGKVKTKFKASYFSIPILAAYQLSPRVRLSAGPYVSFMTSGDFNGYVSDGYLRKGDPTGTKVEFKDGNTAPYDFSKDLRSFQWGMQAGAEWKAFKHLTVHADLEWGLNDIFKKEFKTITFNMYPIYLNAGFGYAF	not soluble
MKKSLVVCALSAAVLLSGCETVNTTSGGVVGVDRKQSMFSMVSSAEVNQSYAQSYQQTLGEASSQGVLDKTSANAKRLQVIANRLIAQAPTFRPDCAQWKWEVNLIKSDELNANCGPGGKIIFYSGLIEKLKLTDDEIAAVMGHEIAHALREHGREAMSKQYAVGAGKQIATLFGVPQETVALGDNGVNLLMTLPNSRENENEADLIGLELAARAGYNPNAAISLWNKMGQAAGGSAPPEFMSTHPASTSRIASLQAAIPKVMPLYQAAKKSLEHHHHHH	not soluble
MKKTTLMSAVVATLSLVGCQSTTGSSDAQPEQTSHISQAVYEVEFHAAQSFLSQASQLEQSFADFCLAPKNDVEPVQQQWHSTMLAWMALQGQERGPATALEQSWNVQFWPDKKNTTGRKMSALTKADKVWTVEEISTQSVTVQGLGALEWLLYDDASTLNTNSNVCASGVAIAENLHDKAQIIANSWAENPWKSLQKTEWESEYISLLSNQLEYSMKKLSRPLAKIGHPRPYFSESWRSETSLSNLKANLESLHQLYFANGKGLDALLRAQGKTQLADRVAYQFDMALETWPEDKSLFSALQSVDGYRLVLAQYNKLEQLKYLIHEEVAIELGVVIGFNATDGD	not soluble
